This note sets out measurements from US20180273941A1 (UNIVERSITY OF MARYLAND BALTIMORE, published 2018).

This test has as its target T1, wild-type human moesin (Moesin-WT) (human, UniProt P26038 2-577, pulled down with the anti-p-ERM antibody, i.e. the form with phosphorylated C-terminal threonine (Thr558 for moesin, as the filing names the site in paragraph 193)).
T1 construct: also called pCDNA3-Moesin WT; wild type moesin
Put plainly: anti-p-ERM IP and Western blot, transfected H522 cells. An excerpt: Both plasmids produce high levels of moesin proteins in the transfected cells (FIG. 5d).
Because p-ERM functions primarily through binding to F-actin and EBP50 (ERM-binding phosphoprotein 50) through their C-ERMAD and TERM domain (Fouassier, L., Yun, C. C., Fitz, J. G.& Doctor, R. B. Evidence for ezrin-radixin-moesin-binding phosphoprotein 50 (EBP50) self-association through PDZ-PDZ interactions. J Biol Chem. 275, 25039-25045 (2000); Turunen, O., Wahlström, T. & Vaheri, A. Ezrin has a COOH-terminal actin-binding site that is conserved in the ezrin protein family. J Cell Biol. 126, 1445-1453 (1994); Bretscher, A. et al. ERM-Merlin and EBP50 protein families in plasma membrane organization and function.
For orientation: Immunoblotting shows a protein as a band on a membrane.

T1 sequence (P26038 2-577 limits assumed): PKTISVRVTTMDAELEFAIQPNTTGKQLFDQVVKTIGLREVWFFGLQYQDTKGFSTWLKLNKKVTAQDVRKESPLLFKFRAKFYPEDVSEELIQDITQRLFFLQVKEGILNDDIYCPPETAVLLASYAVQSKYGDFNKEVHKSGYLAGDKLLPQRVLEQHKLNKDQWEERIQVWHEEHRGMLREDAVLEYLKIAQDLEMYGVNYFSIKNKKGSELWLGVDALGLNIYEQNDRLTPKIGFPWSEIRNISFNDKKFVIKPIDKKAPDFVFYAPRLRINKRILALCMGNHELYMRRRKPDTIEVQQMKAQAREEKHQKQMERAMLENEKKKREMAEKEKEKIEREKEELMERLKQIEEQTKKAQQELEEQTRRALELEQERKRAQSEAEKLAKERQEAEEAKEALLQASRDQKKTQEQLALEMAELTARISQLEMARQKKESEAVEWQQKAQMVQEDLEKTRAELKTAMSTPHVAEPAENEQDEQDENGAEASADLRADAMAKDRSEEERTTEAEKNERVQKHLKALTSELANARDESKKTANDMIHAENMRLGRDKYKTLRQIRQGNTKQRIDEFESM

B1: ERM-binding phosphoprotein 50 (EBP50) (other, UniProt O14745 2-358, looked up)
chain: SADAAAGAPLPRLCCLEKGPNGYGFHLHGEKGKLGQYIRLVEPGSPAEKAGLLAGDRLVEVNGENVEKETHQQVVSRIRAALNAVRLLVVDPETDEQLQKLGVQVREELLRAQEAPGQAEPPAAAEVQGAGNENEPREADKSHPEQRELRPRLCTMKKGPSGYGFNLHSDKSKPGQFIRSVDPDSPAEASGLRAQDRIVEVNGVCMEGKQHGDVVSAIRAGGDETKLLVVDRETDEFFKKCRVIPSQEHLNGPLPVPFTNGEIQKENSREALAEAALESPRPALVRSASSDTSEELNSQDSPPKQDSTAPSSTSSSDPILDFNISLAMAKERAHQKRSSKRAPQMDWSKKNELFSNL
notes: Endogenous protein detected by Western blot (anti-EBP50, Clone 6/EBP50) in anti-p-ERM IP products
With B1, the binding result was “binds”.
